Test results as given in US10081665B2, “Peptides and combination of peptides for use in immunotherapy against various tumors” (immatics biotechnologies GmbH, priority 2015, dated 2018).

Each substance was assayed against HLA-A*02:01 (Homo sapiens, UniProt P04439, D140Y/D185E/D98H/E176V/E277Q/G131W/G231S/I119V/I121R/I166T/I218V/L300P/L318F/N151K/N90K/P208A/P217A/Q86G/Q94H/R138H/R169H/T345S) (assay: MHC binding assay (UV-ligand exchange, beta2m ELISA)). Conditions: binding to HLA-A*02:01, β2m ELISA.
Source text: Candidate peptides for T cell based therapies according to the present invention were further tested for their MHC binding capacity (affinity). The individual peptide-MHC complexes were produced by UV-ligand exchange, where a UV-sensitive peptide is cleaved upon UV-irradiation, and exchanged with the peptide of interest as analyzed. Only peptide candidates that can effectively bind and stabilize the peptide-receptive MHC molecules prevent dissociation of the MHC complexes. To determine the yield of the exchange reaction, an ELISA was performed based on the detection of the light chain (β2m) of stabilized MHC complexes. The assay was performed as generally described in Rodenko et al. (Rodenko et al., 2006).
96 well MAXISorp plates (NUNC) were coated over night with 2 ug/ml streptavidin in PBS at room temperature, washed 4× and blocked for 1 h at 37° C. in 2% BSA containing blocking buffer. Refolded HLA-A*02:01/MLA-001 monomers served as standards, covering the range of 15-500 ng/ml. Peptide-MHC monomers of the UV-exchange reaction were diluted 100 fold in blocking buffer. Samples were incubated for 1 h at 37° C., washed four times, incubated with 2 ug/ml HRP conjugated anti-82m for 1 h at 37° C., washed again and detected with TMB solution that is stopped with […]. Absorption was measured at 450 nm. Candidate peptides that show a high exchange yield (preferably higher than 50%, most preferred higher than 75%) are generally preferred for a generation and production of antibodies or fragments thereof, and/or T cell receptors or fragments thereof, as they show sufficient avidity to the MHC molecules and prevent dissociation of the MHC complexes.
With “265 (FLLDKPQDLSI; listed as Homo sapiens) [compound 265]” the “Peptide exchange (MHC class I binding score, peptide exchange yield)” value (shortened to “Peptide exchange”) was “+++ (≥50 = +++)”.
For “234 (VLLNEILEQV; listed as Homo sapiens) [compound 234]”, the “Peptide exchange” value was “++++ (≥75% = ++++)”.
In the case of “266 (FLLDKPQDL; listed as Homo sapiens) [compound 266]”, the “Peptide exchange” value is reported as “++ (≥20% = ++)”.
For “176 (VQSGLRILL; listed as Homo sapiens) [compound 176]”, the “Peptide exchange” value was “++ (≥20% = ++)”.
With “159 (QLGPVPVTI; listed as Homo sapiens) [compound 159]” the “Peptide exchange” value was “+++ (≥50 = +++)”.
In the case of “28 (IKVTDPQLLEL; listed as Homo sapiens) [compound 28]”, the “Peptide exchange” value is reported as “++ (≥20% = ++)”.
In the case of “270 (TLLTFFHEL; listed as Homo sapiens) [compound 270]”, the “Peptide exchange” value is reported as “+++ (≥50 = +++)”.
“19 (KVFELDLVTL; listed as Homo sapiens) [compound 19]” was tested, and the “Peptide exchange” value was “++ (≥20% = ++)”.
In the case of “72 (VLSTRVTNV; listed as Homo sapiens) [compound 72]”, the “Peptide exchange” value is reported as “++ (≥20% = ++)”.
For “63 (KLLPMVIQL; listed as Homo sapiens) [compound 63]”, the “Peptide exchange” value was “+++ (≥50 = +++)”.
In the case of “49 (KLIGNIHGNEV; listed as Homo sapiens) [compound 49]”, the “Peptide exchange” value is reported as “++ (≥20% = ++)”.
With “60 (YLFSQGLQGL; listed as Homo sapiens) [compound 60]” the “Peptide exchange” value was “+++ (≥50 = +++)”.
“200 (IMPTFDLTKV; listed as Homo sapiens) [compound 200]” was tested, and the “Peptide exchange” value was “+++ (≥50 = +++)”.
With “210 (GLAGDNIYL; listed as Homo sapiens) [compound 210]” the “Peptide exchange” value was “+++ (≥50 = +++)”.
“11 (LLDPKTIFL; listed as Homo sapiens) [compound 11]” was tested, and the “Peptide exchange” value was “+++ (≥50 = +++)”.
With “219 (GVVPTIQKV; listed as Homo sapiens) [compound 219]” the “Peptide exchange” value was “++ (≥20% = ++)”.
For “284 (KLMDPGSLPPL; listed as Homo sapiens) [compound 284]”, the “Peptide exchange” value was “++ (≥20% = ++)”.
For “245 (ALLEEEEGV; listed as Homo sapiens) [compound 245]”, the “Peptide exchange” value was “++ (≥20% = ++)”.
For “279 (VLMDEGAVLTL; listed as Homo sapiens) [compound 279]”, the “Peptide exchange” value was “++ (≥20% = ++)”.
With “116 (ALLSSVAEA; listed as Homo sapiens) [compound 116]” the “Peptide exchange” value was “++ (≥20% = ++)”.
With “178 (SLVSWQLLL; listed as Homo sapiens) [compound 178]” the “Peptide exchange” value was “++++ (≥75% = ++++)”.
With “122 (SIIDTELKV; listed as Homo sapiens) [compound 122]” the “Peptide exchange” value was “+++ (≥50 = +++)”.
In the case of “94 (YLDEVAFML; listed as Homo sapiens) [compound 94]”, the “Peptide exchange” value is reported as “+++ (≥50 = +++)”.
For “129 (KMASKVTQV; listed as Homo sapiens) [compound 129]”, the “Peptide exchange” value was “++ (≥20% = ++)”.
“224 (LLFDWSGTGRADA; listed as Homo sapiens) [compound 224]” was tested, and the “Peptide exchange” value was “+++ (≥50 = +++)”.
In the case of “238 (HLQEKLQSL; listed as Homo sapiens) [compound 238]”, the “Peptide exchange” value is reported as “++ (≥20% = ++)”.
“86 (SLFSNIESV; listed as Homo sapiens) [compound 86]” was tested, and the “Peptide exchange” value was “+++ (≥50 = +++)”.
In the case of “190 (SLSTELFKV; listed as Homo sapiens) [compound 190]”, the “Peptide exchange” value is reported as “+++ (≥50 = +++)”.
For “211 (LLTTVLINA; listed as Homo sapiens) [compound 211]”, the “Peptide exchange” value was “+++ (≥50 = +++)”.
For “123 (QTAPEEAFIKL; listed as Homo sapiens) [compound 123]”, the “Peptide exchange” value was “+ (≥10% = +)”.
In the case of “6 (FLNAIETAL; listed as Homo sapiens) [compound 6]”, the “Peptide exchange” value is reported as “++++ (≥75% = ++++)”.
With “213 (ILAVDGVLSV; listed as Homo sapiens) [compound 213]” the “Peptide exchange” value was “+++ (≥50 = +++)”.
With “95 (KLIDEDEPLFL; listed as Homo sapiens) [compound 95]” the “Peptide exchange” value was “+++ (≥50 = +++)”.
With “52 (TIGIPFPNV; listed as Homo sapiens) [compound 52]” the “Peptide exchange” value was “++ (≥20% = ++)”.
In the case of “253 (KLLAVIHEL; listed as Homo sapiens) [compound 253]”, the “Peptide exchange” value is reported as “+++ (≥50 = +++)”.
For “119 (SLIEESEEL; listed as Homo sapiens) [compound 119]”, the “Peptide exchange” value was “++ (≥20% = ++)”.
With “96 (ALDTTRHEL; listed as Homo sapiens) [compound 96]” the “Peptide exchange” value was “++ (≥20% = ++)”.
In the case of “44 (AVFNLVHVV; listed as Homo sapiens) [compound 44]”, the “Peptide exchange” value is reported as “+++ (≥50 = +++)”.
In the case of “7 (ALLQALMEL; listed as Homo sapiens) [compound 7]”, the “Peptide exchange” value is reported as “+++ (≥50 = +++)”.
“24 (KVWSDVTPL; listed as Homo sapiens) [compound 24]” was tested, and the “Peptide exchange” value was “+++ (≥50 = +++)”.
With “115 (ILHGEVNKV; listed as Homo sapiens) [compound 115]” the “Peptide exchange” value was “++ (≥20% = ++)”.
With “131 (SLYPHFTLL; listed as Homo sapiens) [compound 131]” the “Peptide exchange” value was “+++ (≥50 = +++)”.
In the case of “10 (QLIEKNWLL; listed as Homo sapiens) [compound 10]”, the “Peptide exchange” value is reported as “+++ (≥50 = +++)”.
With “109 (ILGSFELQL; listed as Homo sapiens) [compound 109]” the “Peptide exchange” value was “+++ (≥50 = +++)”.
In the case of “259 (GPGIFPPPPPQP; listed as Homo sapiens) [compound 259]”, the “Peptide exchange” value is reported as “+ (≥10% = +)”.
For “137 (KLIYKDLVSV; listed as Homo sapiens) [compound 137]”, the “Peptide exchange” value was “++ (≥20% = ++)”.
“180 (RLYEEEIRI; listed as Homo sapiens) [compound 180]” was tested, and the “Peptide exchange” value was “+++ (≥50 = +++)”.
With “22 (LMYPYIYHV; listed as Homo sapiens) [compound 22]” the “Peptide exchange” value was “+++ (≥50 = +++)”.
With “16 (SLADLSLLL; listed as Homo sapiens) [compound 16]” the “Peptide exchange” value was “+++ (≥50 = +++)”.
With “155 (TLDSYLKAV; listed as Homo sapiens) [compound 155]” the “Peptide exchange” value was “++ (≥20% = ++)”.
With “70 (GLTEKTVLV; listed as Homo sapiens) [compound 70]” the “Peptide exchange” value was “++ (≥20% = ++)”.
In the case of “85 (KLLDKPEQFL; listed as Homo sapiens) [compound 85]”, the “Peptide exchange” value is reported as “++ (≥20% = ++)”.
“160 (TLQEWLTEV; listed as Homo sapiens) [compound 160]” was tested, and the “Peptide exchange” value was “+++ (≥50 = +++)”.
In the case of “276 (RMPTVLQCV; listed as Homo sapiens) [compound 276]”, the “Peptide exchange” value is reported as “+++ (≥50 = +++)”.
In the case of “48 (KISDFGLATV; listed as Homo sapiens) [compound 48]”, the “Peptide exchange” value is reported as “+++ (≥50 = +++)”.
With “117 (TLLEGISRA; listed as Homo sapiens) [compound 117]” the “Peptide exchange” value was “++ (≥20% = ++)”.
With “69 (LKVLKADVVL; listed as Homo sapiens) [compound 69]” the “Peptide exchange” value was “++ (≥20% = ++)”.
